What follows are sequences tested on Escherichia coli TOP10 (assay: shrunken log2 fold change of peptide-encoding DNA abundance (4.5 h post-induction vs induction); higher = less antimicrobial activity (less host growth inhibition)). Settings: time post-induction: 4.5 h; library: site-saturation at positions 5, 18, 19, 20.
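Also: peptides expressed intracellularly from a pBAD plasmid library in pooled LB shake-flask culture, induced with 0.3% L-arabinose, DNA abundance read by NGS, three biological replicates, DESeq2 with apeglm shrinkage.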

Sequence	shrunken log2 fold change
RRIRWRPPRLPRPRPRPHFCPRP	-0.0299
RRIRVRPPRLPRPRPRPWVVPRP	-0.0754
RRIRYRPPRLPRPRPRPIPQPRP	-0.0934
RRIRSRPPRLPRPRPRPFDMPRP	0.394
RRIRTRPPRLPRPRPRPVRVPRP	0.229
RRIRWRPPRLPRPRPRPEEHPRP	0.23
RRIRKRPPRLPRPRPRPTLDPRP	0.877
RRIRCRPPRLPRPRPRPVHNPRP	-0.415
RRIRYRPPRLPRPRPRPRIDPRP	-0.174
RRIRLRPPRLPRPRPRPFSNPRP	-1.04
RRIRARPPRLPRPRPRPWPFPRP	-0.0236
RRIRQRPPRLPRPRPRPVAEPRP	0.478
RRIRERPPRLPRPRPRPYWKPRP	-0.0866
RRIRGRPPRLPRPRPRPVLPPRP	0.383
RRIRYRPPRLPRPRPRPQMNPRP	-1.27
RRIRRRPPRLPRPRPRPKMGPRP	-0.0227
RRIRLRPPRLPRPRPRPYPNPRP	-1.27
RRIRVRPPRLPRPRPRPHFSPRP	-0.0373
RRIRMRPPRLPRPRPRPNRQPRP	0.108
RRIRPRPPRLPRPRPRPWIKPRP	-0.0265
RRIRERPPRLPRPRPRPWDSPRP	0.0192
RRIRHRPPRLPRPRPRPDITPRP	-0.212

Sequence	shrunken log2 fold change
RRIRPRPPRLPRPRPRPLVDPRP	0.111
RRIRWRPPRLPRPRPRPRVRPRP	0.563
RRIRSRPPRLPRPRPRPNWPPRP	0.278
RRIRARPPRLPRPRPRPPCMPRP	0.099
RRIRWRPPRLPRPRPRPIRHPRP	-0.252
RRIRVRPPRLPRPRPRPPCTPRP	-0.159
RRIRNRPPRLPRPRPRPHPGPRP	-0.0788
RRIRHRPPRLPRPRPRPAEQPRP	0.0649
RRIRGRPPRLPRPRPRPSTDPRP	0.899
RRIRRRPPRLPRPRPRPWYPPRP	-0.206
RRIRGRPPRLPRPRPRPQLTPRP	0.644
RRIRERPPRLPRPRPRPDWKPRP	-0.0141
RRIRFRPPRLPRPRPRPGRRPRP	0.334
RRIRLRPPRLPRPRPRPDFAPRP	0.0202
RRIRHRPPRLPRPRPRPEIYPRP	-0.413
RRIRFRPPRLPRPRPRPEGQPRP	0.15
RRIRQRPPRLPRPRPRPTEQPRP	0.0331
RRIRHRPPRLPRPRPRPVNQPRP	-0.0313
RRIRKRPPRLPRPRPRPRTGPRP	0.376
RRIRNRPPRLPRPRPRPDQVPRP	-0.148
RRIRSRPPRLPRPRPRPEFGPRP	0.358
RRIRSRPPRLPRPRPRPQDCPRP	-0.261

Sequence	shrunken log2 fold change
RRIRWRPPRLPRPRPRPEILPRP	-0.0318
RRIRYRPPRLPRPRPRPCWHPRP	-0.0701
RRIRERPPRLPRPRPRPRVQPRP	0.00573
RRIRARPPRLPRPRPRPNVSPRP	-0.11
RRIRRRPPRLPRPRPRPICFPRP	0.496
RRIRKRPPRLPRPRPRPHDHPRP	-0.162
RRIRWRPPRLPRPRPRPCIDPRP	-0.0447
RRIRIRPPRLPRPRPRPSPAPRP	-0.11
RRIRCRPPRLPRPRPRPDGYPRP	-0.0404
RRIRQRPPRLPRPRPRPAILPRP	0.312
RRIRWRPPRLPRPRPRPATDPRP	0.258
RRIRPRPPRLPRPRPRPCRLPRP	-0.29
RRIRVRPPRLPRPRPRPGDYPRP	-0.0161
RRIRRRPPRLPRPRPRPPEQPRP	0.033
RRIRDRPPRLPRPRPRPPTVPRP	0.381
RRIRDRPPRLPRPRPRPRDYPRP	0.0389
RRIRLRPPRLPRPRPRPRFHPRP	-0.208
RRIRMRPPRLPRPRPRPWIVPRP	0.0842
RRIRDRPPRLPRPRPRPEMDPRP	0.0766
RRIRERPPRLPRPRPRPMSIPRP	-0.239
RRIRPRPPRLPRPRPRPRFMPRP	-0.0826
RRIRIRPPRLPRPRPRPGIYPRP	-0.585

Sequence	shrunken log2 fold change
RRIRNRPPRLPRPRPRPWQDPRP	-0.112
RRIRRRPPRLPRPRPRPAEHPRP	0.313
RRIRLRPPRLPRPRPRPGLFPRP	0.157
RRIRPRPPRLPRPRPRPFYNPRP	-0.7
RRIRFRPPRLPRPRPRPIWEPRP	-0.0122
RRIRLRPPRLPRPRPRPADVPRP	-0.0469
RRIRKRPPRLPRPRPRPSYPPRP	-0.435
RRIRDRPPRLPRPRPRPHPKPRP	-0.149
RRIRDRPPRLPRPRPRPPCDPRP	-0.0123
RRIRLRPPRLPRPRPRPFTDPRP	-0.317
RRIRERPPRLPRPRPRPMRHPRP	0.0434
RRIRERPPRLPRPRPRPCKKPRP	0.0187
RRIRFRPPRLPRPRPRPWRRPRP	0.0103
RRIRHRPPRLPRPRPRPMFAPRP	-0.245
RRIRFRPPRLPRPRPRPNYAPRP	-0.127
RRIRHRPPRLPRPRPRPYTNPRP	-0.461
RRIRWRPPRLPRPRPRPGDWPRP	0.655
RRIRIRPPRLPRPRPRPPHEPRP	0.225
RRIRCRPPRLPRPRPRPNLAPRP	-0.122
RRIRWRPPRLPRPRPRPIQRPRP	0.0678
RRIRWRPPRLPRPRPRPAHEPRP	0.1
RRIRHRPPRLPRPRPRPGCRPRP	0.704

Sequence	shrunken log2 fold change
RRIRPRPPRLPRPRPRPDHMPRP	-0.33
RRIRRRPPRLPRPRPRPDDYPRP	-0.377
RRIRARPPRLPRPRPRPLIPPRP	0.449
RRIRCRPPRLPRPRPRPRYNPRP	-0.465
RRIRCRPPRLPRPRPRPQQNPRP	0.0237
RRIRDRPPRLPRPRPRPINHPRP	-0.229
RRIRARPPRLPRPRPRPMIGPRP	0.102
RRIRNRPPRLPRPRPRPMECPRP	-0.0276
RRIRFRPPRLPRPRPRPYRDPRP	-0.0081
RRIRVRPPRLPRPRPRPMERPRP	0.0131
RRIRVRPPRLPRPRPRPSKHPRP	-0.538
RRIRHRPPRLPRPRPRPEHSPRP	-0.179
RRIRERPPRLPRPRPRPMLKPRP	-0.292
RRIRCRPPRLPRPRPRPTSTPRP	-0.165
RRIRARPPRLPRPRPRPQTIPRP	-0.196
RRIRTRPPRLPRPRPRPGCTPRP	-0.0907
RRIRTRPPRLPRPRPRPMASPRP	0.0589
RRIRKRPPRLPRPRPRPVFVPRP	0.141
RRIRKRPPRLPRPRPRPACGPRP	0.845
RRIRQRPPRLPRPRPRPVNHPRP	-0.212
RRIRNRPPRLPRPRPRPLCMPRP	-0.218

Reference: the supplement of paper PMC9112550, “Optimization of the antimicrobial peptide Bac7 by deep mutational scanning” (BMC Biology, 2022)
